# Results from the supplement of paper PMC10567573.
# ± gives the standard deviation.
# Experiment: protein stability index of a GFP-peptide fusion (GPS, HEK-293T) (PSI 1-6); higher = more stable
# Details: c terminus: a fixed tail appended
# 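Note: 24-mer peptide tiles fused after GFP, lentivirally expressed, FACS-sorted into six equal bins by GFP/DsRed ratio, decoded by Illumina sequencing, PSI is the read-weighted mean bin number.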
Sequence,protein stability index (treatment: DMSO),"protein stability index (treatment: MLN4924 1 uM, 8 h)"
TQIIGEQNARLAELERKLREVMES [FBXO28],3.71 ± 0.22,3.68 ± 0.12
GQCVQAFETHESDINSVRYYPSGD [GNB5],4.52 ± 0.12,4.46 ± 0.093
ESVTHHDYRMELAQAGTPAPTKPH [SPAG8],4.95 ± 0.26,4.99 ± 0.12
EPVLLFGKIRRGAYALPAGLSAPA [TRIB3],2.76 ± 0.19,3.01 ± 0.26
ARLNGSVASYILASHNGISYKDLD [TENT5D],2.85 ± 0.47,2.68 ± 0.21
GNLSVLDVGCISVTVPSMLSRLLS [OR3A1],2.09 ± 0.49,2.29 ± 0.18
FFPWREAKPGSTEKGLPLRKTHVL [MFSD9],2.72 ± 0.28,2.82 ± 0.076
YMVQDQHECILPFVQVKGNFARLQ [M1AP],2.56 ± 0.37,2.55 ± 0.42
LVRDWSFPYEYSYGLQGGMAFLDK [ATL3],1.96 ± 0.23,2.19 ± 0.38
LTSADRETAEEVSARIVQVVTAEA [MAP2],4.86 ± 0.28,4.89 ± 0.42
PVYLLLELEDKDGLQSAQPTEGQG [MYBL2],3.88 ± 0.23,3.79 ± 0.058
GYNPDYDESGGPDNEDYPLFRELW [KLHDC10],3.37 ± 0.36,3.47 ± 0.18
TNNNIKQRLIKKVQEAVLDKWVND [GOLPH3],2.37 ± 0.4,2.36 ± 0.31
NLKWLDLKDNPLDPVLAKVAGDCL [LRRC59],3.21 ± 0.26,3.08 ± 0.19
PATALGTASYPSDGCGADGLRSRV [NOL4L],4.39 ± 0.27,4.55 ± 0.26
GAPSVGQPGAGFGMPPAGTGMPMM [SNAP91],3.61 ± 0.23,3.76 ± 0.23
DGKLSFEEFKAYFADGVLSGEELH [NECAB1],4.23 ± 0.28,4.14 ± 0.37
DIVWGKIHGFPWWPARVLDISLGQ [PWWP2B],2.7 ± 0.86,2.38 ± 0.42
LLDHNANIDIQNGFLLRYAVIKSN [ASB7],2.53 ± 0.17,2.14 ± 0.2
MVVIHKEIPTGKKDHECSECGKTF [ZNF232],3.07 ± 0.4,3.28 ± 0.2
EKEQEKMRQDLEEERVALNTEIEK [PKD2L1],5.45 ± 0.27,5.64 ± 0.15
RDLTQEQTEKLLQFQDLTGIESMD [FAF2],5.04 ± 0.11,5.05 ± 0.16

Sequence,protein stability index (treatment: DMSO),"protein stability index (treatment: MLN4924 1 uM, 8 h)"
IKDKEAPLHVAQTRLYLRSHRPNM [TEKT4],3.23 ± 0.25,3.23 ± 0.25
LQSAPDVKGRVRCLTAGPEVAAQL [ZSWIM9],3.51 ± 0.28,3.6 ± 0.058
ISENLDYEETGFYEIEIQAEDGGA [PCDHGA10],4.74 ± 0.18,4.7 ± 0.2
VAVDSNLRVRELQRKVDGIQKAYD [CCDC89],3.85 ± 0.21,3.94 ± 0.39
KFSPFGQWWASVGMDDFLGVYSMP [TLE6],2.62 ± 0.67,2.35 ± 0.4
GEAAGSSLIGHLQTLSPDMQGAYC [DUSP5],3.82 ± 0.34,3.87 ± 0.26
RTLPNASTVDNIRSIFGNAVSREL [MLH1],3.55 ± 0.12,3.54 ± 0.17
DSPSKEEVFRFVQSCARAVVPSYI [CPOX],2.48 ± 0.55,2.5 ± 0.32
LQAIKAAIMLLPDENREVLQTLLY [DLC1],2.23 ± 0.42,2.22 ± 0.16
KEEAQAEIEQYRLQREKEFKAKEA [ATP6V1G1],5.5 ± 0.21,5.58 ± 0.38
VADGLCCVLTTPCLTQSTAAPAVR [SLA],2.5 ± 0.54,2.77 ± 0.2
IHGFPWWPARVLDISLGQKEDGEP [PWWP2B],3.05 ± 0.18,3.54 ± 0.4
MEGLAGYVYKAASEGKVLTLAALL [FEM1B],2.22 ± 0.31,2.09 ± 0.44
PPNTRVLRVLPNLPCVVQEGAIVM [PYCR3],2.22 ± 0.22,2.39 ± 0.25
QPRIHLVRAAQLCSQHWGGMASFR [TBX6],2.38 ± 0.56,2.24 ± 0.11
LIIQAGIKEVIFMSDKYHDSDEAT [DCTD],2.16 ± 0.28,2.08 ± 0.089
SLTSGACRLDYRRPENRSFYLALY [TCF25],2.41 ± 0.66,2.57 ± 0.88
LCQHFEAVHSGTPVTNNLLEKCKT [SPACA9],4.14 ± 0.13,4.19 ± 0.17
LAQTRAEGQRQAQEYEALLNIKVK [KRT18],4.26 ± 0.38,4.17 ± 0.15
CRGNQHDVPVIPLDVVDNQTEKLD [CASP6],5.05 ± 0.26,5.03 ± 0.13
ALAEGYRYPELDTPKLDCFLSGME [TBX6],3.2 ± 0.48,3.5 ± 0.19
IYQGEDLPHPKSMLQATAEANNLA [ATL3],4.25 ± 0.23,4.332 ± 0.041
